{"source": "paper PMC3597659", "key": {"RAG1c (core RAG1) [1]": {"biological_target": "T1, RAG1c (core RAG1) (Mus musculus, UniProt P15919 384-1008)", "T1 sequence": "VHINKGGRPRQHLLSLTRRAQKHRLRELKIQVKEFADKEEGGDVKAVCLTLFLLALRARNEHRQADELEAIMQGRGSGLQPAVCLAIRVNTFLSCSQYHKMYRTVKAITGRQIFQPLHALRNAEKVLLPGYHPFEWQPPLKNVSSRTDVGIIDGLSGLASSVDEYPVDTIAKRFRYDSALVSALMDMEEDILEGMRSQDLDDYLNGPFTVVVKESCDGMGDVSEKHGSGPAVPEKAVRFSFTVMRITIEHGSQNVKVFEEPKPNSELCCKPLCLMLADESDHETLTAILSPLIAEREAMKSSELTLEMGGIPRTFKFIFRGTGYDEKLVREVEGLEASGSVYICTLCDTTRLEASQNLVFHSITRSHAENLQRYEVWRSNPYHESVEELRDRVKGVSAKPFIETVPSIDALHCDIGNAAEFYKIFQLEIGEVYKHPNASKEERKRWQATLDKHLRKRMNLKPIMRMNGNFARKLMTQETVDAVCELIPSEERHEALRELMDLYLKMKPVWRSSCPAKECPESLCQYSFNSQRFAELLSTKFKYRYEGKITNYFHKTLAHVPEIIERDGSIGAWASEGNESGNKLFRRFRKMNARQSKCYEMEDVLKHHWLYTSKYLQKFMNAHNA", "experiment": "fluorescence anisotropy"}, "HMGB1-WT [2]": {"biological_target": "T2, HMGB1-WT (Homo sapiens, UniProt P09429 2-215)", "T2 sequence (P09429 2-215)": "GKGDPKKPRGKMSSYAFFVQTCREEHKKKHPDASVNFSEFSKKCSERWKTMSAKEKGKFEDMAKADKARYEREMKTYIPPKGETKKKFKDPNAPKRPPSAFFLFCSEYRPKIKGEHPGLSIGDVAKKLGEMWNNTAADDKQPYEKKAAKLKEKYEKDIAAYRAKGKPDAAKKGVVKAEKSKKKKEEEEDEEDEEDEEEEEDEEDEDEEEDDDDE", "experiment": "fluorescence anisotropy"}, "[3]": {"biological_target": "HMGB1-A488;RAG1c (core RAG1) (Homo sapiens;Mus musculus, UniProt P09429;P15919 2-215;384-1008, C23A;A34C;C45A;C106A|)", "sequence (P09429 2-215 C23A/A34C/C45A/C106A, one chain of several)": "as the sequence (P09429 2-215) above, with C22A, A33C, C44A, C105A counted along it", "experiment": "fluorescence anisotropy"}, "[4]": {"biological_target": "T3, HMGB1-WT;RAG1c (core RAG1) (Homo sapiens;Mus musculus, UniProt P09429;P15919 2-215;384-1008, |)", "T3 sequence (P09429 2-215, one chain of several)": "as the sequence (P09429 2-215) above", "experiment": "pull-down"}, "[5]": {"biological_target": "HMGB1-WT;RAG1c (core RAG1);GST-RAG2c (core RAG2) (Homo sapiens;Mus musculus;Mus musculus, UniProt P09429;P15919;P21784 2-215;384-1008;1-387, ||)", "sequence (P09429 2-215, chain 1 of 2)": "as the sequence (P09429 2-215) above", "sequence (P21784 1-387, chain 3 of 2)": "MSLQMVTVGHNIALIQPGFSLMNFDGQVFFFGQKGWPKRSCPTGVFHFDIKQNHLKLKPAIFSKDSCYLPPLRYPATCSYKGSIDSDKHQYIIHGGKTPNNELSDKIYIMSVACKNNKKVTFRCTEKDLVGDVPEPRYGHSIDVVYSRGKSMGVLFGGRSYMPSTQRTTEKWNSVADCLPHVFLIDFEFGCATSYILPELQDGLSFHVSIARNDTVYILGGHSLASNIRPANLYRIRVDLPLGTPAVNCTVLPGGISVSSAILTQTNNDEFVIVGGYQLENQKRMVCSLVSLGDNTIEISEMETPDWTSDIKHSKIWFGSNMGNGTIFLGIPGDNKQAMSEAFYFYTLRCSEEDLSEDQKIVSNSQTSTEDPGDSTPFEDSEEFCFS", "experiment": "EMSA"}, "RAG1c (core RAG1) [6]": {"biological_target": "T1, RAG1c (core RAG1)", "experiment": "fluorescence anisotropy", "remark": "listed apart in the source"}, "HMGB1-WT [7]": {"biological_target": "T2, HMGB1-WT", "experiment": "fluorescence anisotropy", "remark": "listed apart in the source"}, "HMGB1-A488": {"biological_target": "HMGB1-A488 (Homo sapiens, UniProt P09429 2-215, C23A;A34C;C45A;C106A)", "sequence (P09429 2-215 C23A/A34C/C45A/C106A)": "as the sequence (P09429 2-215) above, with C22A, A33C, C44A, C105A counted along it", "experiment": "EMSA"}, "HMGB1-WT [8]": {"biological_target": "T2, HMGB1-WT", "experiment": "pull-down"}, "[9]": {"biological_target": "T3, HMGB1-WT;RAG1c (core RAG1)", "experiment": "pull-down", "remark": "listed apart in the source"}}, "note": "Read-outs that look alike come from different tables or passages of the source.", "data": [{"binder": "23RSS-A488 (dsDNA) DNA 1: GATCTGGCCTGTCTTACACAGTGATGGAAGCTCAATCTGAACTCTGACAAAAACCTCGAGCGGAG DNA 2: CTCCGCTCGAGGTTTTTGTCAGAGTTCAGATTGAGCTTCCATCACTGTGTAAGACAGGCCAGATC", "values": [{"measurement": "Kd", "setting": "RAG1c (core RAG1) [1]", "value": 78, "unit": "nM"}, {"measurement": "Kd", "setting": "HMGB1-WT [2]", "value": 57, "unit": "nM"}]}, {"binder": "23RSS (dsDNA) DNA 1: GATCTGGCCTGTCTTACACAGTGATGGAAGCTCAATCTGAACTCTGACAAAAACCTCGAGCGGAG DNA 2: CTCCGCTCGAGGTTTTTGTCAGAGTTCAGATTGAGCTTCCATCACTGTGTAAGACAGGCCAGATC", "values": [{"measurement": "binding result", "setting": "[3]", "value": "binds"}]}, {"binder": "23RSS-biotin (dsDNA) DNA 1: GATCTGGCCTGTCTTACACAGTGATGGAAGCTCAATCTGAACTCTGACAAAAACCTCGAGCGGAG DNA 2: CTCCGCTCGAGGTTTTTGTCAGAGTTCAGATTGAGCTTCCATCACTGTGTAAGACAGGCCAGATC", "values": [{"measurement": "binding result", "setting": "[4]", "value": "binds"}]}, {"binder": "32P-23RSS (dsDNA) DNA 1: GATCTGGCCTGTCTTACACAGTGATGGAAGCTCAATCTGAACTCTGACAAAAACCTCGAGCGGAG DNA 2: CTCCGCTCGAGGTTTTTGTCAGAGTTCAGATTGAGCTTCCATCACTGTGTAAGACAGGCCAGATC", "values": [{"measurement": "binding result", "setting": "[5]", "value": "binds"}]}, {"binder": "23MUT-A488 (dsDNA) DNA 1: GATCTGGCCTGTCTTAACGCAGTATGGAAGCTCAATCTGAACTCTGTGTCTCTGATCGAGCGGAG DNA 2: CTCCGCTCGATCAGAGACACAGAGTTCAGATTGAGCTTCCATACTGCGTTAAGACAGGCCAGATC", "values": [{"measurement": "Kd", "setting": "RAG1c (core RAG1) [6]", "value": 104, "unit": "nM"}, {"measurement": "Kd", "setting": "HMGB1-WT [7]", "value": 66, "unit": "nM"}]}, {"binder": "23MUT (dsDNA) DNA 1: GATCTGGCCTGTCTTAACGCAGTATGGAAGCTCAATCTGAACTCTGTGTCTCTGATCGAGCGGAG DNA 2: CTCCGCTCGATCAGAGACACAGAGTTCAGATTGAGCTTCCATACTGCGTTAAGACAGGCCAGATC", "values": [{"measurement": "binding result", "setting": "[3]", "value": "binds"}]}, {"binder": "four-way junction (4WJ) (structured_DNA) DNA 1: CCTCCGTCCTAGCAAGGGGCTGCTACCGGAAGGG DNA 2: CCCTTCCGGTAGCAGCCTGAGCGGTGGTTGAAGG DNA 3: CCTTCAACCACCGCTCAACTCAACTGCAGTCTGG DNA 4: CCAGACTGCAGTTGAGTCCTTGCTAGGACGGAGG", "values": [{"measurement": "binding result", "setting": "HMGB1-A488", "value": "binds"}]}, {"binder": "23SCR-biotin (dsDNA) DNA 1: GCTGCGTCTCAAGTTACGCTGCGAGGAATCCTGGTAAGATCTGCGTTAAGTCGGATTCATCTACG DNA 2: CGTAGATGAATCCGACTTAACGCAGATCTTACCAGGATTCCTCGCAGCGTAACTTGAGACGCAGC", "values": [{"measurement": "binding result", "setting": "HMGB1-WT [8]", "value": "binds"}, {"measurement": "binding result", "setting": "[9]", "value": "binds"}]}, {"binder": "23SCR (dsDNA) DNA 1: GCTGCGTCTCAAGTTACGCTGCGAGGAATCCTGGTAAGATCTGCGTTAAGTCGGATTCATCTACG DNA 2: CGTAGATGAATCCGACTTAACGCAGATCTTACCAGGATTCCTCGCAGCGTAACTTGAGACGCAGC", "values": [{"measurement": "binding result", "setting": "[3]", "value": "binds"}]}]}
